B1: Parvulin: prototype of the Pin1 family of PPIases, R68 and R69 replaced by Glu (protein, UniProt P0A9L5 2-93, looked up)
Peptidyl-prolyl cis-trans …: AKTAAALHILVKEEKLALDLLEQIKNGADFGKLAKKHSICPSGKRGGDLGEFRQGQMVPAFDKVVFSCPVLEPTGPLHTQFGYHIIKVLYRN
B2: Cdc25C: cell cycle regulatory protein, predicted Pin1 substrate; human Cdc25C in HeLa extracts (protein)
chain: STELFSSTREEGSSGSGPSFRSNQRKMLNLLLERDTSFTVCPDVPRTPVGKFLGDSANLSILSGGTPKRCLDLSNLSSGEITATQLTTSADLDETGHLDSSGLQEVHLAGMNHDQHLMKCSPAQLLCSTPNGLDRGHRKRDAMCSSSANKENDNGNLVDSEMKYLGSPITTVPKLDKNPNLGEDQAEEISDELMEFSLKDQEAKVSRSGLYRSPSMPENLNRPRLKQVEKFKDNTIPDKVKKKYFSGQGKLRKGLCLKKTVSLCDITITQMLEEDSNQGHLIGDFSKVCALPTVSGKHQDLKYVNPETVAALLSGKFQGLIEKFYVIDCRYPYEYLGGHIQGALNLYSQEELFNFFLKKPIVPLDTQKRIIIVFHCEFSSERGPRMCRCLREEDRSLNQYPALYYPELYILKGGYRDFFPEYMELCEPQSYCPMHHQDHKTELLRCRSQSKVQEGERQLREQIALLVKDMSP

How the values were obtained:
Cdc25, Cdc27 = assay: Binding of GST-Pin1 mutants to Cdc25 or Cdc27
Experimental: (§1) To detect Pin1-binding proteins, either HeLa cells were lysed in or Xenopus extracts were diluted in a buffer (buffer A) containing 50 mM Tris-HCl, pH 8.0, 200 mM NaCl, 100 mM NaF, 1 mM sodium orthovanadate, 10% glycerol, 1% Triton X100, 10 μg/ml aprotinin, 50 μg/ml phenylmethylsulfonyl fluoride and 1 mM DTT. The lysates were preclarified with boiled S. aureus bacteria (CalBiochem) and then incubated with 10 μl of agarose beads containing various GST-Pin1 proteins or control GST for 2 h at 4° C. The precipitated proteins were washed 5 times in the same buffer and subjected to immunoblotting analysis. Immunoprecipitation and immunoblotting analysis using MPM-2 antibody (Davis et al. 1983), which was kindly provided by J. Kuang, Pin1 antibodies (Lu et al., 1996, kindly provided by M. White or newly generated), anti-phospho.Tyr antibody (UBI), anti-Cdc25C (Ogg, et al., 1994) (from H. Piwnica-Worms and Santa Cruz Biotechnology), anti-Cdc27, anti-Plk1 (Zymed), anti-Cdc2 (Solomon, M. J., M. Glotzer, T. H. Lee, M. Philippe and M. W. Kirschner. Cell 63:1013-1024 (1991), anti-human Myt1, anti-human cyclin B1 and anti-Xenopus cyclin B were performed, as described previously in Lu and Hunter, 1995; Lu et al., 1996).
Several known mitotic regulators such as cyclin B, Cdc25, Myt1, Plk1 and Cdc27 are phosphorylated at mitosis. […]

MPM-2 antigens = assay: GST-Pin1 pull-down / depletion of MPM-2 antigens from HeLa cell extracts, MPM-2 immunoblotting; format: binding, human; conditions: mitotic HeLa cell extracts, GST fusion proteins
Experimental: as §1
To determine whether GST-Pin1 can deplete MPM-2 antigens and to estimate what concentrations of Pin1 are required to completely deplete MPM-2 antigens, mitotic extracts were incubated with different amounts of GST-Pin1, followed by analyzing MPM-2 antigens remaining in the depleted supernatants. The total cellular Pin1 concentration in HeLa cells was estimated to be about 0.5 μM, based on immunoblotting analysis using anti-Pin1 antibodies with recombinant Pin1 protein as a standard.
To determine if the Pin1 mutants interact with mitotic phosphoproteins, GST-Pin1, -Pin1^R68,69A and -Pin1^H59A fusion proteins were incubated with interphase or mitotic HeLa cell extracts and associated proteins subjected to MPM-2 immunoblotting analysis. […] A few proteins including the most strongly reacting p55 band could still be recognized. […] Thus, mutating the residues that are implicated in binding either the substrate's putative phosphate group or the substrate's Pro residue abolish the ability of Pin1 to bind MPM-2 antigens.

Pin1 [1] = molecular target: T1, Pin1 (Homo sapiens, UniProt Q13526); assay: Confirmation of interaction between Pin1 and predicted Pin1 substrates; conditions: Pin1 binding confirmed in vitro (SC35 inferred from colocalization)
T1 construct: fusion protein containing full length Pin1 was bacterially expressed, purified; made in house
T1 sequence (Q13526 whole entry, the tested form may be a part): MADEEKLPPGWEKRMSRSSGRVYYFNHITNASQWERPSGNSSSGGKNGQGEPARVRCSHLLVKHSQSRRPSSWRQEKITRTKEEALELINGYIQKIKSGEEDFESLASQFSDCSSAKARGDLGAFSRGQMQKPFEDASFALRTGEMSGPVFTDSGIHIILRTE
Experimental: On the basis of amino acid preferences deduced in the 6 positions surrounding the pS-P motif for optimal Pin1 binding, a weighted screening of the SWISS-PROT sequence database. Protein sequence database screening was performed with the program INDOVINATOR, using an entropy-based weighing technique to score for relative information content at each amino acid position flanking the pS/pT-P motif with the quantitative peptide library results, which are shown qualitatively in Table 3. […] Many of these proteins are involved in regulation of the cell cycle, cytoskeletal/spindle structure, DNA replication, transcription or RNA processing (Table 4).
Several of these predicted proteins, such as Rab4, Cdc25 and NIMA, undergo mitosis-specific phosphorylation (R. Heald and F. McKeon, Cell 61:579 (1990); E. Bailly, et al., Nature 350:715 (1991); A. Blangy, et al., Cell 83:1159 (1995): J. Kuang, et al., Mol. Biol. Cell 5:135 (1994); X. S. Ye, et al., EMBO J. 14:986 (1995)). Cdc25 and NIMA also binds to Pin1 in a phosphorylation-dependent manner, as described herein. Other proteins identified in this search, however, had not been previously suspected of interacting with Pin1; therefore, a few were further investigated as example cases. […] Thus, Pin1 binds a wide functional range of mitotic phosphoproteins.

Pin1 [2] = molecular target: T1, Pin1; assay: Precipitation with GST-Pin1 beads of synthesized phosphoproteins incubated with interphase and mitotic Xenopus extracts; format: binding; parameters: key: +: a week but above background interaction; ++: readily detectable interaction; +++: strong interaction; conditions: mitotic Xenopus extracts
Experimental: The binding between Pin1 and all selected mitotic phosphoproteins was assayed by incubating synthesized proteins with interphase and mitotic Xenopus extracts, followed by precipitation with GST-Pin1beads. The Pin1 interactions with those proteins indicated with * were also confirmed by GST-Pin1 pull-down assay from endogenous interphase and mitotic HeLa cell extracts. +, a week but above background interaction; ++, readily detectable interaction; +++, strong interaction.
The mitotic phosphoproteins were translated in vitro using the TNT coupled transcription/translation kit (Promega) in a total volume of 10 μl in the presence of 8 μCi [^35S]methionine (1000 Ci/mmol) for 2 h at 30° C. They were then incubated in xenopus interphase and mitotic extracts as described (Stukenberg et al., 1997). These incubated clones were precipitated by Pin1 beads as described below. The Xenopus Mos and Weel clones were a kind gift of M. Murakami, G, F. Woude and J. Cooper; the Xenopus Cdc25 clone was a generous gift of W. Dunphy, T3 and T3S2 Cdc25 mutants were kindly provided by J. Maller (Izumi and Maller, 1993).
as §1
To gain a sense of the generality of the interaction between Pin1 and mitotic phosphoproteins and to confirm the Pin1 interaction with target proteins is indeed mediated by phosphorylation, the ability of Pin1 to bind other known mitotic phosphoproteins and a set of mitotic phosphoproteins identified by a systematic phosphoprotein screen (Stukenberg et al., Curr Biol 7:338-348 (1997). Proteins synthesized in vitro were phosphorylated in a cell cycle specific manner by incubating them in either Xenopus interphace or mitotic extracts. These labeled protein were subsequently incubated with GST-Pin1 beads that were extensively washed and the bound proteins analyzed by SDS-PAGE. To validate this method, Cdc25 was first tested. Again, the mitotically phosphorylated form of in vitro translated Cdc25 could be precipitated by GST-Pin1 beads. However, Cdc25 was not recognized by Pin1 if it was incubated in interphase extracts. […] Out of the 13 mitotic phosphoproteins examined, Pin1 bound 10 in a mitosis and phosphorylation-dependent manner (summarized in Table 1), including Weel, MP75 and MP110, MP75 and MP110 are Xenopus proteins related to microtubule-associated protein E-MAP-115 and the fission yeast G2 transcription factor Cdc5, respectively.

Pin1 [3] = molecular target: T1, Pin1; assay: Pin1 precipitation from interphase and mitotic HeLa extracts probed with antibodies to known mitotic phosphoproteins; format: binding
Experimental: as §1
Several known mitotic regulators such as cyclin B, Cdc25, Myt1, Plk1 and Cdc27 are phosphorylated at mitosis. To identify at least a few of the many Pin1 binding proteins, Pin1-binding proteins were precipitated from HeLa cells, or Xenopus extracts and probed with antibodies specific for known mitotic phosphoproteins. As shown previously, levels of Plk1 and cyclin B1 increased at mitosis, whereas similar amounts of Cdc25C were present in interphase and mitotic HeLa cells. […] Similarly, only the mitotic, but not the interphase form of Xenopus Cdc27 was precipitated by Pin1.

mitotic GST-Cdc25 = molecular target: T2, mitotic GST-Cdc25 (Xenopus laevis, UniProt P30309); assay: Cdc25 activity assay (activation of cyclin B/Cdc2, H1 kinase); format: biochemical; conditions: 0.67 μM protein, 1 μM mitotic Cdc25
T2 construct: made in house
T2 sequence (P30309 1-550): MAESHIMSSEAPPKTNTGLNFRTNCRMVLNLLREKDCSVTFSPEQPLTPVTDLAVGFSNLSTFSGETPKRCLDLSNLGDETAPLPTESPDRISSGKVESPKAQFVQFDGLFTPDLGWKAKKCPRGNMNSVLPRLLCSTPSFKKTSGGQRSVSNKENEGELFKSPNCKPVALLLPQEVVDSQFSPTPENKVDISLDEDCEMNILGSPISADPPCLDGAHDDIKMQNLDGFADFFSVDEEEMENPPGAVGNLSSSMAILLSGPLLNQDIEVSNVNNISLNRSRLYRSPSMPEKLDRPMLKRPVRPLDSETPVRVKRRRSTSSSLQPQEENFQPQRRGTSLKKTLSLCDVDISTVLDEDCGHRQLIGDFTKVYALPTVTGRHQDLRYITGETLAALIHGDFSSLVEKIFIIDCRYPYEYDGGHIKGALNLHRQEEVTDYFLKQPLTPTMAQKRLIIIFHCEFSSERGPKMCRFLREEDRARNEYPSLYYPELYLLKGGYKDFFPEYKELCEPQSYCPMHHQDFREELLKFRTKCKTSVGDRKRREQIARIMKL
Experimental: Cdc2 was assayed using histone H1 as a substrate, as previously described in Murray, 1991; Lu and Hunter, (1995).
A subthreshold concentration of GST cyclin B (10 μg) was added to 1 ml of Xenopus interphase extract for thirty min at room temperature (Solomon, M. J., M. Glotzer, T. H. Lee, M. Philippe and M. W. Kirschner, Cell 63:1013-1024 (1990). This was diluted 8 fold in XB+3 mM DTT, rotated for 1 h with 3 ml of GST agarose beads, washed 3 times in XBIP (XB+500 mM NaCl and 1% NP40+2 mM DTT), washed 2 times (once overnight) in EB (80 mM β glycerol phosphate, 15 mM EGTA, 15 mM MgCl2)+2 mM DTT, 500 mM NaCl and 1% NP40, and finally twice with EB+10 mM DTT. These Cdc25 assay beads were stored at 4° C. for up to 1 month. Mitotic GST-Cdc25 was purified by incubating 22 μg of GST-Cdc25, in a Xenopus mitotic extract for 30 min at 23° C., this was diluted 8 fold in XB and rotated with 50 μl of glutathione-Agarose beads (Sigma) for 1 hr at 4° C. The beads were washed 5 times in XB-IP, twice in XB+2 mM DTT and eluted in 25 μl XB+2 mM reduced GSH. The final concentration of Mitotic GST-Cdc25 was 0.36 mg/ml. […] Phosphoimager analysis of the H1 kinase assays were quantified by the Molecular Dynamics ImageQuant 3.3 software. […] The most reproducible way to quantify the Cdc25 activity in this assay was by determining the endpoint dilution of Cdc25 which could activate Cdc2. […]

[4] = test system: phosphorylated and unphosphorylated peptide substrates; AEPF, AAPF; assay: PPIase activity of site-directed Pin1 mutants and parvulin; format: biochemical
Text: To test these predictions from the model, site-directed Pin1 mutants were generated and their PPIase activity assayed as described herein and in K. P. Lu, S. D. Hanes, T. Hunter, Nature 380:544 (1996); K. P. Lu and T. Hunter, Cell 81:413 (1995).
Site-directed mutations of Pin1 were introduced using PCR-based techniques and verified by DNA sequencing. The corresponding mutant proteins were expressed and purified using the same procedures as those described for wild-type Pin1. PPIase activity was measured, as described previously (Lu et al., 1996), with the exception that the absorbance of p-nitroaniline (at 395 nM) was followed every second for 2-10 min. and data were analyzed offline using a kinetic computer program written by G. Tucker-Kellogg in the C.

Row | Molecule | interaction with Cdc25 or Cdc27 (Cdc25, Cdc27) | binding of MPM-2 antigens (MPM-2 antigens) | Binding Confirmed (Pin1 [1]) | precipitation by Pin1 (Pin1 [3]) | further results
1 | Pin1^H59A: Pin1 mutant with Ala substitution at His-59 | neither mutant Pin1^R68,69A nor Pin1^H59A interacted with Cdc25 or Cdc27 | significantly reduced compared to the wild-type protein | – | – | –
2 | Plk1: Polo-like kinase, mitotic phosphoprotein | – | – | Yes | bound selectively only to the mitotically hyperphosphorylated form | Interaction with Pin1, Mitotic (Pin1 [2]): +++
3 | Pin1^R68,69A: Pin1 mutant with Ala substitutions at Arg68 and Arg69 | neither mutant Pin1^R68,69A nor Pin1^H59A interacted with Cdc25 or Cdc27 | significantly reduced compared to the wild-type protein | – | – | effect on Cdc25 activity (mitotic GST-Cdc25): neither the mutant Pin1^R68,69A at the same concentration (0.67 μM), or BSA at a 25 fold higher concentration (15 μM) had a significant inhibitory effect on Cdc25 activity
4 | B1 | – | – | – | – | isomerization of pS-P peptidyl bonds ([4]; phosphorylated peptide): failed to catalyze the isomerization of pS-P peptidyl bonds; catalytic activity for the unphosphorylated peptide substrate ([4]; unphosphorylated peptide): very effective in catalyzing the P isomerization of the unphosphorylated peptide
5 | B2 | – | – | Yes | bound selectively only to the mitotically hyperphosphorylated form | –
